Results on three molecules are retold here after publication PMC7338556, “A Truncated Form of HpARI Stabilizes IL-33, Amplifying Responses to the Cytokine” (Frontiers in Immunology, 2020).

B1: HpARI_CCP2/3 (HpARI truncation lacking CCP1) (domain or fragment)
chain: TYDPTPNTPTTVGKDGIWNGVDYRNGSTVKPYCDTGPVINGSSKAVCVSGKWVPTLGVCPKMCSIGSLKENGKFVDVTATTKGDELNPPPREQTLIPIVRKVDKDKVQHGVKVVALCKAEDSTTAAEGVQEFECDNGKWKPEPVPCP
B2: recombinant murine IL-33 (ligand)
chain: SIQGTSLLTQSPASLSTYNDQSVSFVLENGCYVINVDDSGKDQEQDQVLLRYYESPCPASQSGDGVDGKKLMVNMSPIKDTDIWLHANDKDYSVELQRGDVSPPEQAFFVLHKKSSDFVSFECKNLPGTYIGVKDNQLALVEEKDESCNNIMFKLSKI
modifications: Reduced (active) form with free cysteines. Limits are not given; the usual commercial (BioLegend) mature mouse IL-33, Ser109-Ile266, is assumed, matching the candidate chain 109-266
B3: HpARI_CCP1/2 (HpARI truncation lacking CCP3) (domain or fragment)
chain: AGQRCRFTDVERDKGYTGMLLKGRLRKTAGNGRTVELICGRGNHNYTCESGVLKESSPRQARCGCKGILEMLFDMPKEERPSPMYDSVTYDPTPNTPTTVGKDGIWNGVDYRNGSTVKPYCDTGPVINGSSKAVCVSGKWVPTLGVCPK

Test [1] addresses B2. The test is described as follows: SPR; HpARI, HpARI_CCP1/2 or HpARI_CCP2/3 captured via the hexa-His tag and covalently stabilised on an NTA chip (400 RU); mIL-33 2.47-200 nM injected, single-cycle kinetics, 25 °C; 10 mM NaH2PO4 pH 7.5, 150 mM NaCl, 50 μM EDTA, 0.05% P20; global fit of a 1:1 model with mass transport. The conditions noted are these: both partners purified. A general note: SPR reads the build-up and loss of mass on a sensor chip optically.

Test [2] has as its target T1, H. polygyrus Alarmin Release Inhibitor (HpARI), full-length (Heligmosomoides polygyrus).
T1 construct: It was cloned into the secretion vector pSecTAG2A, so the native signal peptide may be missing and a vector leader used (surmise); also called full-length HpARI; source: Expi293F cells, transfected (pSecTAG2A), purified from supernatant (HisTrap excel, HiTRAP chelating HP Ni column); not shown: His6, C-terminal, kept
The description is as above. The conditions noted are these: both partners purified.

B1: the dissociation constant Kd in test [1] was 1.4 nM.
Regarding B2, in test [2], binding was put at a Kd of 1.1 nM and the koff came out at 0.00015 s⁻¹.
For B3, in test [1], the Kd came out at 9.8 nM and the koff came out at 0.003 s⁻¹.

The Kd is a measure of binding affinity in units of concentration. Usually koff stands for the rate constant with which the complex falls apart.
